The target in test [1] is GFP-tagged Plasmepsin V (PmV-GFP), P. falciparum clone DC6 (Plasmodium falciparum).
Test [2] shares this target. The source holds these as a separate data set.
Test [3] shares this target. The source holds these as a separate data set.

Where two headings read alike, the source gives them in different places. Ends that are not written are not given here. * marks the point of attachment. Biotin = O=C1N[C@H]2[C@H](CS[C@H]2CCCCC(=O)*)N1; Octanoyl = CCCCCCCC(=O)*; GABA = NCCCC(=O)O

GFP-tagged Plasmepsin V (PmV-GFP), P. falciparum clone DC6 (Plasmodium falciparum), sequence (Q8I6Z5 whole entry): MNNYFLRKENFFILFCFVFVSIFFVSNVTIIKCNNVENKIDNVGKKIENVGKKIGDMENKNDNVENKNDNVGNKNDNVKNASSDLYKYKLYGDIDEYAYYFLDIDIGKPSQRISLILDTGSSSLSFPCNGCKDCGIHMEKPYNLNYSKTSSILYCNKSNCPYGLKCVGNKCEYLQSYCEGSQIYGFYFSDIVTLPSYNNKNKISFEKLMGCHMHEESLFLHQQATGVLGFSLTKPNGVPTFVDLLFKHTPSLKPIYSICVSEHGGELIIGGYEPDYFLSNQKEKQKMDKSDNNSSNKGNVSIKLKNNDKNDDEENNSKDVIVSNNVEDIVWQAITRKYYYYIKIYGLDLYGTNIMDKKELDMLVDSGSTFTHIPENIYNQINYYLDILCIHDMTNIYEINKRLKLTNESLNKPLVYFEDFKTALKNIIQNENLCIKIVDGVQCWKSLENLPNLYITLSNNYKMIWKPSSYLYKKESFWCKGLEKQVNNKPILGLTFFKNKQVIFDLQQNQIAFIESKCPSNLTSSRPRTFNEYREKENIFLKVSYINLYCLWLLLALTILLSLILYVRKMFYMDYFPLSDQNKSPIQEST

B1: Compound 8b (R epimer of Compound 8, glutamine in P2') (peptide)
peptide: RLLAQA
In test [1], B1 yielded an IC50 of inhibition of PmV cleavage of the fluorogenic HRPII-PExEl substrate of 188 nM.

B2: Compound 37a (octanoyl group at the N-terminus of Compound 7a) (peptide)
peptide: Octanoyl-RLLYEA
modifications: not fully specified
B2 came in with an IC50 of inhibition of PmV cleavage of the fluorogenic HRPII-PExEl substrate in test [2] of 0.023 nM.

B3: Compound 37b (R epimer of Compound 37) (peptide)
peptide: RLLYEA
B3 gave an IC50 of inhibition of PmV cleavage of the fluorogenic HRPII-PExEl substrate in test [1] of 1.57 nM.

B4: Compound 36, a biotinylated version of Compound 1 (peptide)
peptide: {Biotin-GABA-GABA}-RLLAEA
modifications: also: hydroxyethylamino (HEA) isostere replaces P1 Leu-P1' Ala peptide bond
Consider B4, for which the in vitro inhibitory activity (IC50) against PmV cleavage of the fluorogenic HRPII-PExEl substrate in test [3] was 42 nM.

Source of the values: PMC4643876, “Picomolar Inhibition of Plasmepsin V, an Essential Malaria Protease, Achieved Exploiting the Prime Region” (PLoS ONE, 2015).
